Experimental findings from article PMC11303751, “Novel enzymatic route to the synthesis of C-8 hydroxyflavonoids including flavonols and isoflavones” (Scientific Reports, 2024) are described below.

The target in one data set is T1, fdeE (Herbaspirillum seropedicae, UniProt D8J0W9).
T1 construct: gene Hsero_1007; codon-optimised ORF in pRhaBAD_12, expressed in E. coli BL21(DE3), purified by Ni IMAC (HisTrap), desalted
T1 sequence (D8J0W9 1-376): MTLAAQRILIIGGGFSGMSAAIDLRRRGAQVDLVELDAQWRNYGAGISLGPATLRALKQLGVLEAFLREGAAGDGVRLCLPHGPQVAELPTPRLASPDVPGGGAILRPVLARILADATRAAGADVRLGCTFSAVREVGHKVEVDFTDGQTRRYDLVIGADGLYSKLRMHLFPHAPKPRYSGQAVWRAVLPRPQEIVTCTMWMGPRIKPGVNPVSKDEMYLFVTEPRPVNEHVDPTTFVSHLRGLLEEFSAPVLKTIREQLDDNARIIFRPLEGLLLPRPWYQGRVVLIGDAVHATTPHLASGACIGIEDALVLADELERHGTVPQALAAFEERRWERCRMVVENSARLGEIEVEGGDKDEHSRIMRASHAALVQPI
Kind of data set: UV-Vis spectrum of purified enzyme. The data set is classed as binding. Conditions: FAD co-purified with the enzyme; none added.

Substrate in data set [1]: O=c1cc(-c2ccc(O)c(O)c2)oc2cc(O)cc(O)c12
Nature of the data set: UPLC-DAD product-formation progress curve. The data set is classed as biochemical, Herbaspirillum seropedicae. Conditions: 1 mM NADPH, GDH/glucose regeneration, 25 mM DTT, 25 mM sodium phosphate pH 7.5, initial substrate 0.05 mM, from a single progress curve. The text has this: (§1) UPLC-DAD product-formation progress curve on fdeE

Substrate in data set [2]: O=c1c(O)c(-c2ccc(O)c(O)c2)oc2cc(O)cc(O)c12
Nature of the data set: UPLC-DAD product-formation progress curve. The data set is classed as biochemical, Herbaspirillum seropedicae. Conditions: 1 mM NADPH, GDH/glucose regeneration, 25 mM DTT, 25 mM sodium phosphate pH 7.5, initial substrate 0.05 mM, from a single progress curve.
Source text: as §1

Substrate in data set [3]: O=C1C[C@@H](c2ccc(O)cc2)Oc2cc(O)cc(O)c21
Kind of data set: UPLC-DAD product-formation progress curve. Format: biochemical, Herbaspirillum seropedicae. The following applies: 1 mM NADPH, GDH/glucose regeneration, 25 mM DTT, 25 mM sodium phosphate pH 7.5, initial substrate 0.05 mM, from a single progress curve.
Source text: as §1

Substrate in data set [4]: O=c1cc(-c2ccccc2)oc2cc(O)cc(O)c12
Nature of the data set: UPLC-DAD product-formation progress curve. The data set is classed as biochemical, Herbaspirillum seropedicae. The following applies: 1 mM NADPH, GDH/glucose regeneration, 25 mM DTT, 25 mM sodium phosphate pH 7.5, initial substrate 0.05 mM, from a single progress curve.
Source text: as §1

Substrate in the data set “purified protein”: O=c1cc(-c2ccc(O)cc2)oc2cc(O)cc(O)c12
Nature of the data set: purified protein. Conditions: 1 mM NADPH, GDH/glucose regeneration, 25 mM DTT, 25 mM sodium phosphate pH 7.5, initial substrate 0.05 mM, from a single progress curve.

On to `Cc1cc2nc3c(=O)[nH]c(=O)nc-3n(C[C@H](O)[C@H](O)[C@H](O)COP(=O)(O)OP(=O)(O)OC[C@H]3O[C@@H](n4cnc5c(N)ncnc54)[C@H](O)[C@@H]3O)c2cc1C` [FAD], for which the “UV-Vis spectrum of purified enzyme” value at fdeE is recorded as “UV–Vis spectrium of purified fdeE with absorption spectra characteristic for FAD absorbance”.

B1: fdeE (Herbaspirillum seropedicae SmR1) (protein)
chain: MTLAAQRILIIGGGFSGMSAAIDLRRRGAQVDLVELDAQWRNYGAGISLGPATLRALKQLGVLEAFLREGAAGDGVRLCLPHGPQVAELPTPRLASPDVPGGGAILRPVLARILADATRAAGADVRLGCTFSAVREVGHKVEVDFTDGQTRRYDLVIGADGLYSKLRMHLFPHAPKPRYSGQAVWRAVLPRPQEIVTCTMWMGPRIKPGVNPVSKDEMYLFVTEPRPVNEHVDPTTFVSHLRGLLEEFSAPVLKTIREQLDDNARIIFRPLEGLLLPRPWYQGRVVLIGDAVHATTPHLASGACIGIEDALVLADELERHGTVPQALAAFEERRWERCRMVVENSARLGEIEVEGGDKDEHSRIMRASHAALVQPI
notes: codon-optimised ORF in pRhaBAD_12, expressed in E. coli BL21(DE3), purified by Ni IMAC (HisTrap), desalted
For orientation: Km means the substrate concentration at which the rate is half of its maximum. The Vmax is the top rate of the reaction or transport when substrate is in excess. The kcat is the number of substrate molecules converted per active site and unit of time at saturation. In general, kcat/Km refers to the turnover number divided by the Michaelis constant. For the molecule B1, the Michaelis-Menten constant (Km) in data set [1] was 51.8 µM; in data set [2], 14.9 µM; in data set [3], 0.422 µM; in data set [4] it was 431 µM; in the data set “purified protein”, 20.2 µM. The maximal velocity (Vmax) was found to be 6.12 µM/min in data set [1]; 0.512 µM/min in data set [2]; 2.09 µM/min in data set [3]; 88.2 µM/min in data set [4]; 4.02 µM/min in “purified protein”. The turnover number (kcat) in data set [1] worked out at 0.0811 s⁻¹; in data set [2], 0.00678 s⁻¹; in data set [3], 0.0277 s⁻¹; in data set [4], 1.17 s⁻¹; in “purified protein”, 0.0532 s⁻¹. For the same molecule, the kcat/Km in data set [1] stood at 1570 M⁻¹ s⁻¹; in data set [2], 450 M⁻¹ s⁻¹; in data set [3], 65500 M⁻¹ s⁻¹; in data set [4] it was 2720 M⁻¹ s⁻¹; in “purified protein”, 2630 M⁻¹ s⁻¹.
